Experimental data as given in article PMC9590162.
Values joined by “and” are separate entries in the source; they are usually repeats but may differ in a detail not shown here. Equal values may be shown once.

Target: human nesfatin-1 (human) (UniProt P80303)
Assay: AUC; SV-AUC, 20 °C, 50 000 rpm, buffer B with 300 or 500 μM ZnCl2; hN1 at 0.7, 1.0, 1.3 mg/ml; monomer to dimer

human nesfatin-1 (from UniProt P80303 25-106) (peptide)
percent of the two main sedimenting species in the larger (dimer) fraction: 58% and 45% and 51% | stoichiometry N: 2
